Measured values as given in patent US20090053198A1 (published 2009).

Molecular target: T1, human E-selectin on CHO-E cells (human, UniProt P16581 22-610)
T1 construct: whole, on cells
T1 sequence (looked up): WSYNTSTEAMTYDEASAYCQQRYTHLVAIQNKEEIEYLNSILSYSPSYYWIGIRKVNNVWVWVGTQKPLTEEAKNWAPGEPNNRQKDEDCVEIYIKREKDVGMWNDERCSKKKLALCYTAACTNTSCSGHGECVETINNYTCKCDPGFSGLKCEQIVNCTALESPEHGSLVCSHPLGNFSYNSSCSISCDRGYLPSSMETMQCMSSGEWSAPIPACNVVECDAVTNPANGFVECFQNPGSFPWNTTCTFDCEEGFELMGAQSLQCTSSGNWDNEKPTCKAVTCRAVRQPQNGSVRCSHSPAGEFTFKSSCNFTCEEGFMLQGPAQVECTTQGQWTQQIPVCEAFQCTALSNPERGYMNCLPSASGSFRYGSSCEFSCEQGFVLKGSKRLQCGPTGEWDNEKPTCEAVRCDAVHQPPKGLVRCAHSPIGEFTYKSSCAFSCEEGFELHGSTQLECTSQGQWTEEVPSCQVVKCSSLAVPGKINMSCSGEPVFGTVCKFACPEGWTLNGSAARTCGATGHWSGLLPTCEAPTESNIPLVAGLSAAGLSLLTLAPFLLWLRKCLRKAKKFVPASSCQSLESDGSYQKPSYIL
Test: blot rolling assay: CHO-E perfused at 0.6 dyne/cm^2 over blotted ML-M membrane glycoproteins (˜130 kDa band)
Excerpt: Blot rolling assays: The blot rolling assay has been described previously²⁹. CHO-E were washed in PBS, and resuspended to 2×10⁶ cells/ml in assay buffer/10% glycerol. […] These blots were then placed in the parallel plate flow chamber, and CHO-E were perfused into the chamber at a shear stress of 0.6 dyne/cm²; an adjustment in the volumetric flow rate was made to account for the increase in viscosity due to the presence of 10% glycerol in the assay buffer. Molecular weight standards (SeeBlue® Plus2 prestained molecular weight standard; Invitrogen Corporation; Carlsbad, Calif.) were co-electrophoresed on adjacent lanes and served as a guide to aid placement of the flow chamber over the stained bands of interest. The number of tethering and rolling CHO-E was tabulated as function of the molecular weight region and compiled into an adhesion histogram. Negative controls were prepared by adding 10 mM EDTA to the assay buffer to chelate Ca²⁺ required for binding or treating CHO-E with anti E-selectin mAb, 68-5411, at 4° C. for 15 min. prior to use in adhesion assays.
For these experiments, we could not assess binding interactions over the entire lane due to the length restriction of the flow chamber; because the differences in HECA-reactivity in proteins from ML and NL clustered within mobilities encompassing 30 kDa-170 kDa, we set the field view over this range. […]

B1: PSGL-1 (P-selectin glycoprotein ligand-1) of G-CSF mobilized leukocytes (ligand, human, UniProt Q14242 42-412, looked up)
chain: QATEYEYLDYDFLPETEPPEMLRNSTDTTPLTGPGTPESTTVEPAARRSTGLDAGGAVTELTTELANMGNLSTDSAAMEIQTTQPAATEAQTTQPVPTEAQTTPLAATEAQTTRLTATEAQTTPLAATEAQTTPPAATEAQTTQPTGLEAQTTAPAAMEAQTTAPAAMEAQTTPPAAMEAQTTQTTAMEAQTTAPEATEAQTTQPTATEAQTTPLAAMEALSTEPSATEALSMEPTTKRGLFIPFSVSSVTHKGIPMAASNLSVNYPVGAPDHISVKQCLLAILILALVATIFFVCTVVLAVRLSRKGHMYPVRNYSPTEMVCISSLLPDGGEGPSATANGGLSKAKSPGLTPEPREDREGDDLTLHSFLP
modifications: sialofucosylated (HECA-452-reactive) glycans; positions not given
notes: Native glycoprotein from donor cells; seen as ˜220 kDa dimer and ˜130 kDa monomer on blots; also called ˜220 kDa band (dimer); ˜130 kDa band (monomer)
B1: binds.
